From PMC7217966

How the values were obtained:
CsgG (Escherichia coli) = CsgG (Escherichia coli) (UniProt P0AEA2); conditions: cited from earlier work
CsgG-6xHis (E. coli) = CsgG-6xHis (E. coli) (UniProt P0AEA2); assay: SPR; Biacore 3000, NTA sensor chip activated with NiSO4; CsgG-His (200 nM) immobilised via the His-tag; N22 peptide injected at 50 μl/min, 20 − 1 nM; 10 mM HEPES, 150 mM NaCl, 0.36 mM DDM, pH 8.0; non-activated reference flow cell; 1:1 binding model

| Kd (CsgG-6xHis (E. coli)) [µM] | Substance | Kd (CsgG (Escherichia coli)) [µM] |
| --- | --- | --- |
|  | CsgA N6 peptide N6 (from UniProt P28307) | 28.3 |
| 0.53 | CsgA N22 peptide |  |
